Results: article PMC2605266 (2008)

Assays:
[1] = target: GST-VAMP2 harbouring only the SNARE motif (VAMP2 lacking the first 30 amino acids) (Rattus norvegicus (Rat), UniProt P63045); test: GST pull-down, immunoblot
[2] = target: GST fused to the cytosolic domain of VAMP2 (Rattus norvegicus (Rat), UniProt P63045); test: GST pull-down, immunoblot
Sequence of GST fused to the cytosolic domain of VAMP2 (P63045 1-92): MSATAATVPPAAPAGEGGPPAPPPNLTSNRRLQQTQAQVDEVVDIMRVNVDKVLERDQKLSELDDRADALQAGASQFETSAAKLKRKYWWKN

Sequence of GST-VAMP2 harbouring only the SNARE motif (VAMP2 lacking the first 30 amino acids) (P63045 31-92): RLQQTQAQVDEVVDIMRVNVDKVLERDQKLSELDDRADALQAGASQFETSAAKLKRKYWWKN

- binding result [1]: binds
- binding result [2]: binds
B1: Munc18c, N-terminal His6-fusion protein (protein)
chain: MAPPVSERGLKSVVWRKIKTAVFDDCRKEGEWKIMLLDEFTTKLLSSCCKMTDLLEEGITVIENIYKNREPVRQMKALYFISPTPKSVDCFLRDFGSKSEKKYKAAYIYFTDFCPDSLFNKIKASCSKSIRRCKEINISFIPQESQVYTLDVPDAFYYCYSPDPSNASRKEVVMEAMAEQIVTVCATLDENPGVRYKSKPLDNASKLAQLVEKKLEDYYKIDEKGLIKGKTQSQLLIIDRGFDPVSTVLHELTFQAMAYDLLPIENDTYKYKTDGKEKEAVLEEDDDLWVRVRHRHIAVVLEEIPKLMKEISSTKKATEGKTSLSALTQLMKKMPHFRKQISKQVVHLNLAEDCMNKFKLNIEKLCKTEQDLALGTDAEGQRVKDSMLVLLPVLLNKNHDNCDKIRAVLLYIFGINGTTEENLDRLIHNVKIEDDSDMIRNWSHLGVPIVPPSQQAKPLRKDRSAEETFQLSRWTPFIKDIMEDAIDNRLDSKEWPYCSRCPAVWNGSGAVSARQKPRTNYLELDRKNGSRLIIFVIGGITYSEMRCAYEVSQAHKSCEVIIGSTHILTPRKLLDDIKMLNKSKDKVSFKDE
